According to patent publication US20220064276A1 (SCHOLAR ROCK, published 2022):
One block for each binder: values may come before it.

Tests used:
[1] = target: T1, human GARP-proTGFβ1 complex (human, UniProt Q14392 18-627; P01137 30-390, limits assumed); test: Octet (bio-layer interferometry), response at 200 nM antigen; 0.1 nm cutoff designates meaningful binding
T1 construct: Exemplary entries; also called Hu GARP-proTGFβ1; huGARP proTGFb1
Procedure: This experiment was performed at 200, 100, 50, and 25 nM human GARP proTGFb1 and human LTBP1 proTGFbl. […] Surface plasmon resonance (SPR)-based assays

[2] = target: T2, mouse LTBP1-proTGFβ1 complex (mouse, UniProt Q8CG19 339-1712; P04202 30-390); test: Octet BLI, IgG captured
T2 construct: Exemplary entries; In the cell assays expressed from mouse LTBP1S and mouse proTGFb1 plasmids in LN229 cells; also called Mo LTBP1-proTGFβ1; MuLTBP1-ProTGFb1
Procedure: (§1) LTBP complex-specific antibodies from the first round of affinity maturation/optimization (SR-AB14, SR-AB16, SR-AB17, SR-AB18, SR-AB19) were selected for a second round of affinity maturation/optimization (i.e., CDR-H3 mutagenesis as described herein) and particular progeny antibodies (SR-AB20, SR-AB21, SR-AB22, SR-AB23, SR-AB24, SR-AB25, SR-AB26, SR-AB27, SR-AB28, and SR-AB29) were assessed for their ability to bind various proTGFβ1 constructs. Binding affinities of the optimized antibodies were measured by Octet against human LTBP1-proTGFβ1, human LTBP3-proTGFbl, mouse LTBP1-proTGFβ1, mouse LTBP3-proTGFbl, and GARP-proTGFβ1 complexes, essentially as described in Example 6. […] The antigens were allowed to associate for 3 minutes followed by a 5-minute dissociation. Kinetics buffer (ForteBio®) was used throughout the experiment, and KD was determined using a 1:1 fitting model for each antibody antigen pair.
Target sequence in this assay (Q8CG19 339-1712 limits assumed, chain 1 of 2): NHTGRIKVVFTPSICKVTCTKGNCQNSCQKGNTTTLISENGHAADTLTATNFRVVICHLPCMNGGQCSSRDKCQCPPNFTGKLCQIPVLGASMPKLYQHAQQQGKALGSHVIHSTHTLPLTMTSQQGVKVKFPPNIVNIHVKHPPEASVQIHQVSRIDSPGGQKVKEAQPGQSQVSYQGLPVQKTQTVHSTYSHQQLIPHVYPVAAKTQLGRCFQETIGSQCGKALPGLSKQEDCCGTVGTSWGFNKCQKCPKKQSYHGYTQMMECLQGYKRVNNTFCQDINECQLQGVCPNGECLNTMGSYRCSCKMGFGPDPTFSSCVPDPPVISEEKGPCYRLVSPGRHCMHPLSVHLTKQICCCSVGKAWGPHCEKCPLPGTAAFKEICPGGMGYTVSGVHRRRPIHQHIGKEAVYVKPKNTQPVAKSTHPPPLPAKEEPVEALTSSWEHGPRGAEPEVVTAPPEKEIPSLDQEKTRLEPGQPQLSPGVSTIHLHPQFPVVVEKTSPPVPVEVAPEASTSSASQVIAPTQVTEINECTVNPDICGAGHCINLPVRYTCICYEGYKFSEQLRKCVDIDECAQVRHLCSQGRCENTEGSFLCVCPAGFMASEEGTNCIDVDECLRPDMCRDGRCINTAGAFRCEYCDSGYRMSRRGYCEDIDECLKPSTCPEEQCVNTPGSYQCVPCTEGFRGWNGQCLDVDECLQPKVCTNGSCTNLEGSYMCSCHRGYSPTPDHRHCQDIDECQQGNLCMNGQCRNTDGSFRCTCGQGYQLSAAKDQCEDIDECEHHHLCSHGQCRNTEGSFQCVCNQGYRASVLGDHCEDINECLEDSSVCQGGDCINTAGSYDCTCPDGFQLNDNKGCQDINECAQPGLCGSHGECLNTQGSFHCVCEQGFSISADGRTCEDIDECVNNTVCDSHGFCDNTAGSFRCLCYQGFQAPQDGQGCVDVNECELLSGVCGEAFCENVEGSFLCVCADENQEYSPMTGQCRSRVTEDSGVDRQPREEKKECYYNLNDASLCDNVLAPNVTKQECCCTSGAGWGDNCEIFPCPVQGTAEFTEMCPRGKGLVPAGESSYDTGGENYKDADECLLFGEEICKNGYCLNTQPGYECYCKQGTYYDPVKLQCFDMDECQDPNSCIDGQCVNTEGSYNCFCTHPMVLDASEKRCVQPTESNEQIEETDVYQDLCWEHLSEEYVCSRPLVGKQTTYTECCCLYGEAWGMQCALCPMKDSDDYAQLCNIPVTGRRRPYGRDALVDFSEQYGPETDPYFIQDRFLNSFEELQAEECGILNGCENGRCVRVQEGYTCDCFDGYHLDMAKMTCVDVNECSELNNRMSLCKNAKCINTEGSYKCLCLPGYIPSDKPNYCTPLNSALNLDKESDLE
Target sequence in this assay (P04202 30-390 limits assumed, chain 2 of 2): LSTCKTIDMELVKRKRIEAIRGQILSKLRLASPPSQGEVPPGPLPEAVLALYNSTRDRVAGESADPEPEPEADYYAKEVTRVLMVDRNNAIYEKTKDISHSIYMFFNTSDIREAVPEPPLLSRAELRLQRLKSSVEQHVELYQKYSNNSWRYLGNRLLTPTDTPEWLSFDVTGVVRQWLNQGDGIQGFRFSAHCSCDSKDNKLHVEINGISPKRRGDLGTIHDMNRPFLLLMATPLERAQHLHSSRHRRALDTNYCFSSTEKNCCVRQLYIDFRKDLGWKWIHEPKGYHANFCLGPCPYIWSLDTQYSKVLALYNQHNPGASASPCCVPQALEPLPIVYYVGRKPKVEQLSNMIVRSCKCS

[3] = target: T3, human LTBP1-proTGFβ1 complex (human, UniProt Q14766 347-1721; P01137 30-390); test: Octet BLI, IgG captured
T3 construct: Large latent complex: one presenting molecule disulfide-linked to a proTGFβ1 dimer; also called Hu LTBP1-proTGFβ1; huLTBP1 proTGFβ1
Procedure: as §1

[4] = target: T4, mouse LTBP3-proTGFβ1 complex (mouse, UniProt Q61810 41-1245; P04202 30-390, limits assumed); test: Octet BLI, IgG captured
T4 construct: Exemplary entries; also called Mo LTBP3-proTGFβ1; Murine LTBP3 proTGFb1
Procedure: as §1

[5] = target: T5, human LTBP3-proTGFβ1 complex (human, UniProt Q9NS15 44-1303; P01137 30-390, limits assumed); test: Octet BLI, IgG captured
T5 construct: Exemplary entries; also called Hu LTBP3-proTGFβ1; huLTBP3 proTGFb1
Procedure: as §1

[6] = target: T6, human LRRC33-proTGFβ1 complex (human, UniProt Q86YC3 19-650; P01137 30-390, limits assumed); test: Octet, antibody immobilized
T6 construct: Exemplary entries; also called huLRRC33 proTGFb1; HuLRRC33-ProTGFb1

[7] = target: LTBP-proTGFβ1: transfected human proTGFβ1 presented by endogenous LTBP1/3 of LN229 cells (human); test: cell-based or functional assay
[8] = target: T2, mouse LTBP1-proTGFβ1 complex; test: cell-based or functional assay
Target sequence in this assay (Q8CG19 339-1712 limits assumed, chain 1 of 2): as the sequence (Q8CG19 339-1712 limits assumed, chain 1 of 2) above
Target sequence in this assay (P04202 30-390 limits assumed, chain 2 of 2): as the sequence (P04202 30-390 limits assumed, chain 2 of 2) above

proTGFβ1 alone = target: T7, proTGFβ1 alone (Homo sapiens (Human), UniProt P01137 30-390); test: ELISA on immobilised antigen (Example 4), RLU, mean ± SD
T7 construct: proTGFβ1 not in complex with a presenting molecule

LTBP1 alone = target: T8, LTBP1 alone (Homo sapiens (Human), UniProt Q14766 347-1721); test: as above
T8 construct: LTBP1 not in complex with TGFβ1
T8 sequence: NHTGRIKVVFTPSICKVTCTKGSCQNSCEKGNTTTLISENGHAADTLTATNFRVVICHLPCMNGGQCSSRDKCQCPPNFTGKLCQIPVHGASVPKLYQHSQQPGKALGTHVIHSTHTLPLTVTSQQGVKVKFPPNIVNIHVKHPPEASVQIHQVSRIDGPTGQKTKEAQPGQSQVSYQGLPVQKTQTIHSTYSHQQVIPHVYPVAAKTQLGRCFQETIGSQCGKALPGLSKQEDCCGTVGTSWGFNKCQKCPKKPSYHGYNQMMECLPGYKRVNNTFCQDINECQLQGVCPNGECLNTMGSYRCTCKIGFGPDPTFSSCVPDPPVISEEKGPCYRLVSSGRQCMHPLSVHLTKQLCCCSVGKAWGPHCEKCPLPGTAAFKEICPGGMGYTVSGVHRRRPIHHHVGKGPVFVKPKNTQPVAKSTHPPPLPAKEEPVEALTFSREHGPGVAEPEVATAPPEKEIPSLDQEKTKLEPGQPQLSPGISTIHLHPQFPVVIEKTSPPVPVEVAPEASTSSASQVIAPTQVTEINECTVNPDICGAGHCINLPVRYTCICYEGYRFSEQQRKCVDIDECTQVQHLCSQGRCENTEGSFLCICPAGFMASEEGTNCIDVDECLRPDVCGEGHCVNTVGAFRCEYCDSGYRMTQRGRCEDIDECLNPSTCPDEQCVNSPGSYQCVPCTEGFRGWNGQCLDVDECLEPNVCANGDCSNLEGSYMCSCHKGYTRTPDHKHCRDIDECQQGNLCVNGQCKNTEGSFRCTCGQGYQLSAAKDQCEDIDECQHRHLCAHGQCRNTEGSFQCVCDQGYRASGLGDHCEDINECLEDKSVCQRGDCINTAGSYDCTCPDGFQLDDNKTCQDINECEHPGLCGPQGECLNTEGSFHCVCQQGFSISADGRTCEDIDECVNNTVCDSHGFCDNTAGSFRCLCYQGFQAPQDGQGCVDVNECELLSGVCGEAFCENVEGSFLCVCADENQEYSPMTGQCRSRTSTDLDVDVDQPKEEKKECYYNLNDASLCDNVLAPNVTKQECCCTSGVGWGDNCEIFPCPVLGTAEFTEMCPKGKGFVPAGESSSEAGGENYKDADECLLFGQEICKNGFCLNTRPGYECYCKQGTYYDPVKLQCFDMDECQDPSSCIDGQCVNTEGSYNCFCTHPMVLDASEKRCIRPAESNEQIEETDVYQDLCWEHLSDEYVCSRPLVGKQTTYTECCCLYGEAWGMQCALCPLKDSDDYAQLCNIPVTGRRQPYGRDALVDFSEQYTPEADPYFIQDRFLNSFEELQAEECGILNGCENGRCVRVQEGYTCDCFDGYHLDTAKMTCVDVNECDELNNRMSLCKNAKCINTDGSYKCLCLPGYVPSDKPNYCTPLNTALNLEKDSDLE

[9] = target: T3, human LTBP1-proTGFβ1 complex; test: Octet binning; competitor (immobilized second antibody) SR-AB1
Procedure: (§2) 500 nM of human LTBP1-proTGFb1 complex was pre-incubated with 1 μM of each test antibody. After an overnight incubation, the LTBP1-proTGFβ1+first antibody was tested for binding to a second antibody which was immobilized to an Anti-Human IgG Fc Capture (AHC) sensor tip at 67 nM. The sensor tip was blocked with a negative control antibody (HuNeg) before seeing the LTBP1-proTGFβ1+first antibody.
(§3) Normalized responses less than 70% or less than 0.7 of the uninhibited interaction were considered antibodies that cross block.

[10] = target: T3, human LTBP1-proTGFβ1 complex; test: Octet binning; competitor (immobilized second antibody) SR-AB2
Procedure: as §2, §3

[11] = target: T3, human LTBP1-proTGFβ1 complex; test: Octet binning; competitor (immobilized second antibody) SR-AB13
Procedure: as §2, §3

[12] = target: T3, human LTBP1-proTGFβ1 complex; test: Octet binning; competitor (immobilized second antibody) SR-AB10
Procedure: as §2, §3

[13] = target: T2, mouse LTBP1-proTGFβ1 complex; test: Octet (bio-layer interferometry), yeast expressed IgG1Agly antibody, antigen at a single 100 nM per Example 6, 1:1 fit; value printed under the panel
Target sequence in this assay (P04202 30-390 limits assumed, one chain of several): as the sequence (P04202 30-390 limits assumed, chain 2 of 2) above

[14] = target: T3, human LTBP1-proTGFβ1 complex; test: as above
[15] = target: T1, human GARP-proTGFβ1 complex; test: Octet (bio-layer interferometry), yeast expressed IgG1Agly antibody, antigen at a single 100 nM per Example 6
[16] = target: T4, mouse LTBP3-proTGFβ1 complex; test: as above
Rat LTBP1-proTGFβ1 = target: T9, Rat LTBP1-proTGFβ1 (rat); test: bio-layer interferometry sensorgrams (y axis nm), concentration series with kinetic table under the panel; concentrations not shown
T9 construct: the sheet labels the whole complex 'Rat'; Named only on the sheet; The legend says only that SR-AB2 cross-reacts with rodent LTBP1-proTGFβ1

[17] = target: T2, mouse LTBP1-proTGFβ1 complex; test: as above
Target sequence in this assay (P04202 30-390 limits assumed, one chain of several): as the sequence (P04202 30-390 limits assumed, chain 2 of 2) above

[18] = target: T3, human LTBP1-proTGFβ1 complex; test: as above
mature TGFβ1 = target: T10, mature TGFβ1 (UniProt P01137 279-390); test: FIG. 2B binding assay
T10 construct: mature
T10 sequence (P01137 279-390 limits assumed): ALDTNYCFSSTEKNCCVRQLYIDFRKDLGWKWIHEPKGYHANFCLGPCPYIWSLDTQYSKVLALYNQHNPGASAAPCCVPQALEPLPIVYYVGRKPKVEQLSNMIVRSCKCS

T3 sequence (P01137 30-390 limits assumed, one chain of several): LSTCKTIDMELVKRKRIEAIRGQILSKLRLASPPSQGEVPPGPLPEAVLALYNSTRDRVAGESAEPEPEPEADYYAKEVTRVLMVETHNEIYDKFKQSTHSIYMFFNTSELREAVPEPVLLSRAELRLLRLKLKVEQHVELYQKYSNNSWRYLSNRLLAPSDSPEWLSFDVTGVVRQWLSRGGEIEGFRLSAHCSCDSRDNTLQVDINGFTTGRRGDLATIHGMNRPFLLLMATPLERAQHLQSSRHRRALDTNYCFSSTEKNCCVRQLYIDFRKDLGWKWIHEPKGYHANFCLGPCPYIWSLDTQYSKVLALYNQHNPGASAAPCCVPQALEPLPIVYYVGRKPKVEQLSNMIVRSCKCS
T4 sequence (Q61810 other isoform, or with tags, fused parts or gaps limits assumed, chain 1 of 2): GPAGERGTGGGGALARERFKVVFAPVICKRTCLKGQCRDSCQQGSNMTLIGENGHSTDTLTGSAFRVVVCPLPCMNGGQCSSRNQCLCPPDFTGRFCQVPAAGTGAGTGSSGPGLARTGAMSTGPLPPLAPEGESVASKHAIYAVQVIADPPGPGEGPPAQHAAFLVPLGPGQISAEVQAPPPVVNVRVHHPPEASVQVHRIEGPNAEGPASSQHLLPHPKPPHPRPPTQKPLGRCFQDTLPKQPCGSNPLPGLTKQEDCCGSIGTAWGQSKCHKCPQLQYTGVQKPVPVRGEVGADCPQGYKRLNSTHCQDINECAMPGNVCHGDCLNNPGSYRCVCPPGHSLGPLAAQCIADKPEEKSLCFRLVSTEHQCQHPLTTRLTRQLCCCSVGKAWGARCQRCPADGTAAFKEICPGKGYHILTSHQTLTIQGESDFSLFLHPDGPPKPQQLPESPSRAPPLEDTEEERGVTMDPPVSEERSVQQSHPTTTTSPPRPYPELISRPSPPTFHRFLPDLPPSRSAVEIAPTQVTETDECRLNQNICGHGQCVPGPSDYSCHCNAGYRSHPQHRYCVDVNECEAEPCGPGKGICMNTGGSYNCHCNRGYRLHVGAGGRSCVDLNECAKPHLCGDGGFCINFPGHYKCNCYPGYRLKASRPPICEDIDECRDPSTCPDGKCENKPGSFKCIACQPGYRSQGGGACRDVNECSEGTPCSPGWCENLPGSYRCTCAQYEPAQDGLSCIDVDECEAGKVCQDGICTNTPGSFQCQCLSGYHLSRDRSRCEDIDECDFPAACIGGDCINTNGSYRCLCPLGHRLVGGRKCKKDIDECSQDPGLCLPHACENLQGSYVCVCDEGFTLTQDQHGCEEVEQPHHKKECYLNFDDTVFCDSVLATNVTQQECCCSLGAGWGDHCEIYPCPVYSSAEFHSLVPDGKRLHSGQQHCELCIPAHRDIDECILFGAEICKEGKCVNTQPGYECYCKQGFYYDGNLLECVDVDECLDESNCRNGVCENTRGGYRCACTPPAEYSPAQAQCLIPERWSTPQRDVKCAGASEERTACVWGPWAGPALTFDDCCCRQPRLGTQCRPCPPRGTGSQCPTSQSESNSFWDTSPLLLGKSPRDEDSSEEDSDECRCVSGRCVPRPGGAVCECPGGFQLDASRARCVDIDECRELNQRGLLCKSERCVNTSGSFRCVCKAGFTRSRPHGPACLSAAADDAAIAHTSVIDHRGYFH
T4 sequence (P04202 30-390 limits assumed, chain 2 of 2): as the sequence (P04202 30-390 limits assumed, chain 2 of 2) above
T7 sequence (P01137 30-390): as the sequence (P01137 30-390 limits assumed, one chain of several) above
LTBP-proTGFβ1: transfected human proTGFβ1 presented by endogenous LTBP1/3 of LN229 cells (human), sequence (P01137 30-390): as the sequence (P01137 30-390 limits assumed, one chain of several) above

- binding result [1]: no binding (tested: 200 nM)
- Kd [2]: 8.38 nM
- Kd [3]: 5.98 nM
- Kd [4]: 7.93 nM
- Kd [5]: 1.26 nM
- binding result [6]: no binding
- IC50, endogenous hLTBP assay (CAGA12 luciferase) [7]: 6.04 nM
- IC50, mLTBP1 assay (CAGA12 luciferase) [8]: 0.946 nM
B1: SR-AB23 (antibody, IgG1, V domains shown)
VH: QVQLVESGGGVVQPGRSLRLSCAASGFTFRSYVMHWVRQAPGKGLEWVAVISHEGSLKYYADSVKGRFTISRDNSKNTLYLQMNSLRAEDTAVYYCARPRIAARRGGFGYWGQGTLVTVSS
VL: NFMLTQPHSVSESPGKTVTISCTRSSGNIDNNYVQWYQQRPGSSPTTVIYEDNQRPSGVPDRFSGSIDSSSNSASLTISGLKTEDEADYYCQSYDSDNQGVVFGGGTKLTVL
notes: Cycle 2, lineage SR-AB14

- binding result (proTGFβ1 alone): no binding
- binding result (LTBP1 alone): no binding
- normalized response [9]: 1.11 fraction of uninhibited binding
- normalized response [10]: 0.47 fraction of uninhibited binding
- normalized response [11]: 1.31 fraction of uninhibited binding
- normalized response [12]: 1.54 fraction of uninhibited binding
- Kd [13]: 245 nM
- Kd [14]: 118 nM
- binding result [15]: no binding (tested: 100 nM)
- binding result [16]: no binding (tested: 100 nM)
- Kd (Rat LTBP1-proTGFβ1): 174 nM
- kobs (Rat LTBP1-proTGFβ1): 0.0176 s⁻¹
- koff (Rat LTBP1-proTGFβ1): 0.00582 s⁻¹
- kon (Rat LTBP1-proTGFβ1): 41900 M⁻¹ s⁻¹
- Kd [17]: 204 nM
- kobs [17]: 0.0134 s⁻¹
- koff [17]: 0.00517 s⁻¹
- kon [17]: 26600 M⁻¹ s⁻¹
- Kd [18]: 188 nM
- kobs [18]: 0.0142 s⁻¹
- koff [18]: 0.00502 s⁻¹
- kon [18]: 28400 M⁻¹ s⁻¹
- binding result (mature TGFβ1): no binding
B2: SR-AB2 (antibody, V domains shown)
VH: QVQLVQSGAEVKKPGASVKVSCKASGYTFTSYGISWVRQAPGQGLEWMGWISAYNGNTNYAQKLQGRVTMTTDTSTSTAYMELRSLRSDDTAVYYCARAPLGNFDSWGQGTMVTVSS
VL: NFMLTQPHSVSESPGKTVTISCTRSSGSIASNYVQWYQQRPGSSPTTVIYEDNQRPSGVPDRFSGSIDSSSNSASLTISGLKTEDEADYYCQSYDSSNHPVVFGGGTKLTVL
